Biological target: the molecule itself
Experiment: crystal structure

B1: nepetalactol-related short-chain dehydrogenase/reductase 3 (NEPS3) from Nepeta mussinii (enzyme)
chain: MANNSVMMKKKLEGKVAIVTGGASGIGEATARLFVKYGARAVVIADIQSELGRSVAESIGKERCSFVQCDVADEEQVKSMIEWTATTYGGLDVMFSNAGVLNSAAQTVKDLDLPLFDKVMRVNTRGAAVCVKQAARKMVELGRGGSIICNAGSSAVRGAHGVTDYVMSKHAVIGLVRSASMQLGAHSIRVNSVSPMAVATPLTRNQGISTPDDVQKFLMPFISLKGVPPTAEQVAEAAAFLGSDEAAFVTGHDLPVDGGVLCMPFLLGSA
In the case of B1, the “stoichiometry N” value is reported as 4.

Reference: PMC6513753 (Nature chemical biology, 2018)
